From IntAct's records for PubMed 23263282

B1: TELO2-interacting protein 1 homolog (Homo sapiens), O43156 (parent)
chain: MAVFDTPEEAFGVLRPVCVQLTKTQTVENVEHLQTRLQAVSDSALQELQQYILFPLRFTLKTPGPKRERLIQSVVECLTFVLSSTCVKEQELLQELFSELSACLYSPSSQKPAAVSEELKLAVIQGLSTLMHSAYGDIILTFYEPSILPRLGFAVSLLLGLAEQEKSKQIKIAALKCLQVLLLQCDCQDHPRSLDELEQKQLGDLFASFLPGISTALTRLITGDFKQGHSIVVSSLKIFYKTVSFIMADEQLKRISKVQAKPAVEHRVAELMVYREADWVKKTGDKLTILIKKIIECVSVHPHWKVRLELVELVEDLLLKCSQSLVECAGPLLKALVGLVNDESPEIQAQCNKVLRHFADQKVVVGNKALADILSESLHSLATSLPRLMNSQDDQGKFSTLSLLLGYLKLLGPKINFVLNSVAHLQRLSKALIQVLELDVADIKIVEERRWNSDDLNASPKTSATQPWNRIQRRYFRFFTDERIFMLLRQVCQLLGYYGNLYLLVDHFMELYHQSVVYRKQAAMILNELVTGAAGLEVEDLHEKHIKTNPEELREIVTSILEEYTSQENWYLVTCLETEEMGEELMMEHPGLQAITSGEHTCQVTSFLAFSKPSPTICSMNSNIWQICIQLEGIGQFAYALGKDFCLLLMSALYPVLEKAGDQTLLISQVATSTMMDVCRACGYDSLQHLINQNSDYLVNGISLNLRHLALHPHTPKVLEVMLRNSDANLLPLVADVVQDVLATLDQFYDKRAASFVSVLHALMAALAQWFPDTGNLGHLQEQSLGEEGSHLNQRPAALEKSTTTAEDIEQFLLNYLKEKDVADGNVSDFDNEEEEQSVPPKVDENDTRPDVEPPLPLQIQIAMDVMERCIHLLSDKNLQIRLKVLDVLDLCVVVLQSHKNQLLPLAHQAWPSLVHRLTRDAPLAVLRAFKVLRTLGSKCGDFLRSRFCKDVLPKLAGSLVTQAPISARAGPVYSHTLAFKLQLAVLQGLGPLCERLDLGEGDLNKVADACLIYLSVKQPVKLQEAARSVFLHLMKVDPDSTWFLLNELYCPVQFTPPHPSLHPVQLHGASGQQNPYTTNVLQLLKELQ
partner: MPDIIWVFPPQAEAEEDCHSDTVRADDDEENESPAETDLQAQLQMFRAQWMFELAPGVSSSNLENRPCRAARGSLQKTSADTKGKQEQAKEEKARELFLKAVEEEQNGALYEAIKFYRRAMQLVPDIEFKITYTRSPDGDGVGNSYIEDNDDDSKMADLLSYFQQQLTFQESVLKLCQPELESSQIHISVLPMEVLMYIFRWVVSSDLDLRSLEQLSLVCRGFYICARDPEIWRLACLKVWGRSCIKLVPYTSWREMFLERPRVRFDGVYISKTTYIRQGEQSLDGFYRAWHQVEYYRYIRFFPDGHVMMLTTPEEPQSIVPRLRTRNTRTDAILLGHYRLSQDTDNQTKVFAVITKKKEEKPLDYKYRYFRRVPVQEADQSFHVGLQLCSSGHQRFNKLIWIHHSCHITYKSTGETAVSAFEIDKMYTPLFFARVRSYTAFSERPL
B2: Telomere length regulation protein TEL2 homolog (Homo sapiens), Q9Y4R8 (parent)
chain: MEPAPSEVRLAVREAIHALSSSEDGGHIFCTLESLKRYLGEMEPPALPREKEEFASAHFSPVLRCLASRLSPAWLELLPHGRLEELWASFFLEGPADQAFLVLMETIEGAAGPSFRLMKMARLLARFLREGRLAVLMEAQCRQQTQPGFILLRETLLGKVVALPDHLGNRLQQENLAEFFPQNYFRLLGEEVVRVLQAVVDSLQGGLDSSVSFVSQVLGKACVHGRQQEILGVLVPRLAALTQGSYLHQRVCWRLVEQVPDRAMEAVLTGLVEAALGPEVLSRLLGNLVVKNKKAQFVMTQKLLFLQSRLTTPMLQSLLGHLAMDSQRRPLLLQVLKELLETWGSSSAIRHTPLPQQRHVSKAVLICLAQLGEPELRDSRDELLASMMAGVKCRLDSSLPPVRRLGMIVAEVVSARIHPEGPPLKFQYEEDELSLELLALASPQPAGDGASEAGTSLVPATAEPPAETPAEIVDGGVPQAQLAGSDSDLDSDDEFVPYDMSGDRELKSSKAPAYVRDCVEALTTSEDIERWEAALRALEGLVYRSPTATREVSVELAKVLLHLEEKTCVVGFAGLRQRALVAVTVTDPAPVADYLTSQFYALNYSLRQRMDILDVLTLAAQELSRPGCLGRTPQPGSPSPNTPCLPEAAVSQPGSAVASDWRVVVEERIRSKTQRLSKGGPRQGPAGSPSRFNSVAGHFFFPLLQRFDRPLVTFDLLGEDQLVLGRLAHTLGALMCLAVNTTVAVAMGKALLEFVWALRFHIDAYVRQGLLSAVSSVLLSLPAARLLEDLMDELLEARSWLADVAEKDPDEDCRTLALRALLLLQRLKNRLLPPASP
partner: B1 partner

Variants of: B1
Details: with fbx9_human FBXO9, Q9UK97

Variant | effect of a mutation on the interaction
S828A | disrupting interaction strength

Variants of: B2
Details: with fbx9_human FBXO9, Q9UK97

Variant | effect of a mutation on the interaction
S485A;S487A | decreasing interaction strength
